From paper PMC6486591, “Cryo-EM structures of the pore-forming A subunit from the Yersinia entomophaga ABC toxin” (Nature Communications, 2019) come the findings set out here.

The target of assay [1] is T1, YenA1 (Yersinia entomophaga, UniProt B6A877 1-1164).
T1 construct: YenA1, TcA-like protein of Yersinia entomophaga (130 kDa), subunit of YenTcA; residues 45-304 and 584-1164 are resolved in the alpha-helical shell, residues 305-583 are an unmodelled domain insertion; Natively expressed, no fusion tags; Five copies stand in the YenTcA complex; also called TcA-like protein YenA1
T1 sequence (B6A877 whole entry, the tested form may be a part): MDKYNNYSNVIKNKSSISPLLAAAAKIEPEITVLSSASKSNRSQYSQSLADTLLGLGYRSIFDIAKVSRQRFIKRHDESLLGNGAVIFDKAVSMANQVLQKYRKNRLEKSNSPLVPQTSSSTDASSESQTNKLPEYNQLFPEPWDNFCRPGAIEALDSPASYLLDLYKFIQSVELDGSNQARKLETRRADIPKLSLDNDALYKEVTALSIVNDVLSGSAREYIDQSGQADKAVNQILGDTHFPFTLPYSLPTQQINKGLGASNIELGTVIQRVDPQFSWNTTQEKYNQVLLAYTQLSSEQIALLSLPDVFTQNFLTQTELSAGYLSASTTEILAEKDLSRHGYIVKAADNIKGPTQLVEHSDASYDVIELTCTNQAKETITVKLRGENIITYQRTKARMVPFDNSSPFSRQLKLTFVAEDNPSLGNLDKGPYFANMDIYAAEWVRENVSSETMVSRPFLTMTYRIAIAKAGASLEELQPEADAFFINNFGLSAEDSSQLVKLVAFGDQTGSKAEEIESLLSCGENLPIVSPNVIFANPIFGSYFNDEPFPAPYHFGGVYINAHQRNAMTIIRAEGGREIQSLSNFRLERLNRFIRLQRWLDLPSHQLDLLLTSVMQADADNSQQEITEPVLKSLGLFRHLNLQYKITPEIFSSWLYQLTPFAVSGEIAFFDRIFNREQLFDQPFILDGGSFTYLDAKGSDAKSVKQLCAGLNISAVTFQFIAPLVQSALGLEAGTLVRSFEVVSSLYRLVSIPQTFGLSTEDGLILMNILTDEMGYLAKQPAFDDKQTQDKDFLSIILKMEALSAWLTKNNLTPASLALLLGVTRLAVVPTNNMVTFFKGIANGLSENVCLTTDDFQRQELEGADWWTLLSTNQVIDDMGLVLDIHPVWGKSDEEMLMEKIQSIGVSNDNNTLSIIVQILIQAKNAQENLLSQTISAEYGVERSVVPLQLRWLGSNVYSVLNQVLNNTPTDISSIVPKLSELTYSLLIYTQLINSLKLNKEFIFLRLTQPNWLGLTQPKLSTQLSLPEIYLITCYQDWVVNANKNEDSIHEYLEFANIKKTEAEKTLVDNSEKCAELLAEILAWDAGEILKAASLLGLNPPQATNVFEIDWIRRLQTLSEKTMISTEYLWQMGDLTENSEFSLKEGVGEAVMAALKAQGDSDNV
As to the kind of experiment: cryo-EM structure; YenTcA soluble pre-pore form, single-particle cryo-EM, 4.4 Å average resolution, C5 symmetry; 0.1 mg/mL in 25 mM Tris, 150 mM NaCl, pH 7.5, with 10 mM NDSB-195. The following applies: both partners purified.

Assay [2] concerns the target T2, YenA2 (Yersinia entomophaga, UniProt B6A878 1-1364).
T2 construct: YenA2, TcA-like protein of Yersinia entomophaga (156 kDa), subunit of YenTcA; UniProt entry name B6A878_9GAMM is printed; holds the shell domain (1-165; 559-812), neuraminidase-like domain (166-332; Natively expressed, no fusion tags; Five copies stand in the YenTcA complex and form the pentameric pore; also called TcA-like protein YenA2
The description is as above. To be noted: both partners purified.

T2 sequence (B6A878 whole entry, the tested form may be a part): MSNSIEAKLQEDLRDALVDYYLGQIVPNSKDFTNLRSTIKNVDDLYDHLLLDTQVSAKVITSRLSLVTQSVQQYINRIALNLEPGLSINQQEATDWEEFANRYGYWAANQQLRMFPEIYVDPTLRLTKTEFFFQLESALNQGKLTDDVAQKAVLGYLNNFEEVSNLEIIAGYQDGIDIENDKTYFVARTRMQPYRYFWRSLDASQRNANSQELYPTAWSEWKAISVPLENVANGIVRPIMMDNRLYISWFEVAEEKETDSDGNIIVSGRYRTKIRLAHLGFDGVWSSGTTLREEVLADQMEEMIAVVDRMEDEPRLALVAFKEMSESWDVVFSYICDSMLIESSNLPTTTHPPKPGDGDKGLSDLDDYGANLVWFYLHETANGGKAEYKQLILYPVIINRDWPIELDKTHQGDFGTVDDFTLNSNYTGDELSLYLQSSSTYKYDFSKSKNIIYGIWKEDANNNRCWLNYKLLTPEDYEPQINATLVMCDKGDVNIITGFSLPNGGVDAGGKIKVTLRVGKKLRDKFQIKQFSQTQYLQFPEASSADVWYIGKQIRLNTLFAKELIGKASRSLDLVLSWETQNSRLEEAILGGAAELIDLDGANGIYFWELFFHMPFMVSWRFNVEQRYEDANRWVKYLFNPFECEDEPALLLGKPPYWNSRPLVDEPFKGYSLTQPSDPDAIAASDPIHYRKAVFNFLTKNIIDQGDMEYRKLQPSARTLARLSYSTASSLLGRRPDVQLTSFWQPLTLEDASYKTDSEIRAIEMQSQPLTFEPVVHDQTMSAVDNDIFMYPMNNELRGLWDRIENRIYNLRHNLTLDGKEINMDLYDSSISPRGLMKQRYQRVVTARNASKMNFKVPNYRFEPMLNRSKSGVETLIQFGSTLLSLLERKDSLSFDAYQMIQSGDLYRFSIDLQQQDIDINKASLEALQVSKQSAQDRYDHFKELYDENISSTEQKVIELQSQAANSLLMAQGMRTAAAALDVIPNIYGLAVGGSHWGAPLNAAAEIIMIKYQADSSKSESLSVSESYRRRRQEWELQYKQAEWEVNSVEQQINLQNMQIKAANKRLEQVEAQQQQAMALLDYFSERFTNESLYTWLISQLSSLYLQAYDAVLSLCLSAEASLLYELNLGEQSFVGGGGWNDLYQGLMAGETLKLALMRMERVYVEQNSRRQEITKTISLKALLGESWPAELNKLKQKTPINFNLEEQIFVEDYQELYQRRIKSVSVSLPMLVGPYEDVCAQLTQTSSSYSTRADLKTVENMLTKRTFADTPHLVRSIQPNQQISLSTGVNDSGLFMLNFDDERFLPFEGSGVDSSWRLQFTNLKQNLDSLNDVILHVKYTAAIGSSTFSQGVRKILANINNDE

B1: Chi2 (enzyme)
chain: MVNKYTYTSSKAMSDISDVIGEPLAAWDSQVGGRVFNVIFDGKVYTNTYWVERWQVPGIGSSDGNPHNAWKFVRAATADEINKIGNPTTADVKPTENIPSPILVEDKYTEETYSRPDVNFKEDGSQGNLSYTATRVCAPMYNHYVGDKTKPKLSAYITDWCQYDARLDGGGSKEEERGRGFDLATLMQNPATYDRLIFSFLGICGDIGNKSKKVQEVWDGWNAQAPSLGLPQIGKGHIVPLDPYGDLGTARNVGLPPESADTSIESGTFLPYYQQNRAAGLLGGLRELQKKAHAMGHKLDLAFSIGGWSLSSYFSALAENPDERRVFVASVVDFFVRFPMFSCVDIDWEYPGGGGDEGNISSDKDGENYVLLIKELRSALDSRFGYSNRKEISIACSGVKAKLKKSNIDQLVANGLDNIYLMSYDFFGTIWADYIGHHTNLYSPKDPGEQELFDLSAEAAIDYLHNELGIPMEKIHLGYANYGRSAVGGDLTTRQYTKNGPALGTMENGAPEFFDIVKNYMDAEHSLSMGKNGFVLMTDTNADADFLFSEAKGHFISLDTPRTVKQKGEYAAKNKLGGVFSWSGDQDCGLLANAAREGLGYVADSNQETIDMGPLYNPGKEIYLKSISEIKSK
notes: Chi2, endochitinase of Yersinia entomophaga, subunit of YenTcA; N-terminal domain residues 1-91 (unmodelled), chitinase domain residues 92-632 (earlier crystal structure PDB 4dws); Natively expressed, no fusion tags; Five copies stand in the YenTcA complex; also called endochitinase Chi2; Chi2 subunit
Regarding B1, the binding result in assay [1] is “binds”.

B2: Chi1 (enzyme)
chain: MEKEEKSNLIYDKDPGYVWDNKNECEGAAEETYQELNYEPSISADKLTWTPTRLAKTVFNTYEDDDDFNVLCYFTDWSQYDPRIINKEIRDTGGRSADILRLNTPDGRPFKRLIYSFGGLIGDKKYSADGNASIAVRLGVATDPDDAIANHKGKTIPVDPDGAVLASINCGFTKWEAGDANERYNQEKAKGLLGGFRLLHEADKELEFSLSIGGWSMSGLFSEIAKDEILRTNFVEGIKDFFQRFPMFSHLDIDWEYPGSIGAGNPNSPDDGANFAILIQQITDAKISNLKGISIASSADPAKIDAANIPALMDAGVTGINLMTYDFFTLGDGKLSHHTNIYRDPSDVYSKYSIDDAVTHLIDEKKVDPKAIFIGYAGYTRNAKNATITTSIPSEEALKGTYTDANQTLGSFEYSVLEWTDIICHYMDFEKGEGRNGYKLVHDKVAKADYLYSEATKVFISLDTPRSVRDKGRYVKDKGLGGLFIWSGDQDNGILTNAAHEGLKRRIKNKVIDMTPFYLDSDEELPTYTEPAEPQCEACNIK
notes: Chi1, endochitinase of Yersinia entomophaga, subunit of YenTcA; earlier crystal structure PDB 3oa5 was fitted as a rigid body; Natively expressed, no fusion tags; Five copies stand in YenTcA; Chi1 is not in the deposited atomic model 6ogd; also called endochitinase Chi1; Chi1 subunit
Take B2: the binding result in assay [2] is recorded as “binds”.
